In the supplement of paper PMC10567573:

B1: BCL2L13 (parent)
chain: QSLDQEILLKVKTEIEEELKSLDK

Variants of: B1
Assay: protein stability index of a GFP-peptide fusion (GPS, HEK-293T) (PSI 1-6); higher = more stable
Settings: c terminus: a fixed tail appended
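Also: lentivirally expressed fusions sorted by FACS into six bins by GFP to DsRed ratio, PSI derived from sequencing read proportions per bin multiplied by bin number.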

Point of comparison: QSLDQEILLKVKTEFEEELKSLDK [I15F], protein stability index 5.36. Against it:
- QSLDQEILLKVKTEILEELKSLDK [E16L] — lower, 3.23
- QSLDQEILLKVKTEISEELKSLDK [E16S] — lower, 4.93
- QSLDQEILLKVKTEICEELKSLDK [E16C] — lower, 3.97
- QSLDQEILLKVKTEINEELKSLDK [E16N] — lower, 5.02
- QSLDQEILLKVKTEIQEELKSLDK [E16Q] — lower, 5.04
- QSLDQEILLKVKTEIGEELKSLDK [E16G] — lower, 5.21
- QSLDQEILLKVKTEITEELKSLDK [E16T] — lower, 4.72
- QSLDQEILLKVKTEIHEELKSLDK [E16H] — lower, 4.4
- QSLDQEILLKVKTEIREELKSLDK [E16R] — lower, 4.79
- QSLDQEILLKVKTEIFEELKSLDK [E16F] — lower, 3.53
- QSLDQEILLKVKTEIIEELKSLDK [E16I] — lower, 4.35
- QSLDQEILLKVKTEIKEELKSLDK [E16K] — lower, 4.76
- QSLDQEILLKVKTEIYEELKSLDK [E16Y] — lower, 3.87
- QSLDQEILLKVKTEIAEELKSLDK [E16A] — lower, 4.6
- QSLDQEILLKVKTEIWEELKSLDK [E16W] — lower, 3.66
- QSLDQEILLKVKTEIDEELKSLDK [E16D] — lower, 5.17
- QSLDQEILLKVKTEIVEELKSLDK [E16V] — lower, 3.69
- QSLDQEILLKVKTEIPEELKSLDK [E16P] — lower, 4.69
- QSLDQEILLKVKTEIMEELKSLDK [E16M] — lower, 3.09
- QSLDQEILLKVKTEIETELKSLDK [E17T] — lower, 4.1
- QSLDQEILLKVKTEIEYELKSLDK [E17Y] — lower, 3.67
- QSLDQEILLKVKTEIEDELKSLDK [E17D] — lower, 5.13
- QSLDQEILLKVKTEIEHELKSLDK [E17H] — lower, 4.51
- QSLDQEILLKVKTEIELELKSLDK [E17L] — lower, 3.72
- QSLDQEILLKVKTEIEMELKSLDK [E17M] — lower, 4.08
- QSLDQEILLKVKTEIEFELKSLDK [E17F] — lower, 3.54
- QSLDQEILLKVKTEIEWELKSLDK [E17W] — lower, 3.51
- QSLDQEILLKVKTEIEAELKSLDK [E17A] — lower, 4.57
- QSLDQEILLKVKTEIENELKSLDK [E17N] — lower, 4.11
- QSLDQEILLKVKTEIERELKSLDK [E17R] — lower, 3.99
- QSLDQEILLKVKTEIEQELKSLDK [E17Q] — lower, 4.56
- QSLDQEILLKVKTEIEPELKSLDK [E17P] — lower, 4.95
- QSLDQEILLKVKTEIEIELKSLDK [E17I] — lower, 3.49
- QSLDQEILLKVKTEIEKELKSLDK [E17K] — lower, 4.41
- QSLDQEILLKVKTEIECELKSLDK [E17C] — lower, 3.87
- QSLDQEILLKVKTEIESELKSLDK [E17S] — lower, 4.81
- QSLDQEILLKVKTEIEGELKSLDK [E17G] — lower, 4.93
- QSLDQEILLKVKTEIEVELKSLDK [E17V] — lower, 2.69
- QSLDQEILLKVKTEIEEEIKSLDK [L19I] — lower, 4.65
- QSLDQEILLKVKTEIEEENKSLDK [L19N] — lower, 5
- QSLDQEILLKVKTEIEEEAKSLDK [L19A] — higher, 5.68
- QSLDQEILLKVKTEIEEEMKSLDK [L19M] — higher, 5.4
- QSLDQEILLKVKTEIEEEKKSLDK [L19K] — lower, 5.19
- QSLDQEILLKVKTEIEEEHKSLDK [L19H] — lower, 4.97
- QSLDQEILLKVKTEIEEEQKSLDK [L19Q] — higher, 5.49
- QSLDQEILLKVKTEIEEECKSLDK [L19C] — lower, 5.02
- QSLDQEILLKVKTEIEEEFKSLDK [L19F] — lower, 4.76
- QSLDQEILLKVKTEIEEEEKSLDK [L19E] — higher, 5.71
- QSLDQEILLKVKTEIEEEDKSLDK [L19D] — higher, 5.77
- QSLDQEILLKVKTEIEEEPKSLDK [L19P] — higher, 5.64
- QSLDQEILLKVKTEIEEERKSLDK [L19R] — higher, 5.57
- QSLDQEILLKVKTEIEEEGKSLDK [L19G] — lower, 5.03
- QSLDQEILLKVKTVIEEELKSLDK [E14V] — lower, 3.48
- QSLDQEILLKVKTTIEEELKSLDK [E14T] — lower, 4.46
- QSLDQEILLKVKTSIEEELKSLDK [E14S] — lower, 4.99
- QSLDQEILLKVKTWIEEELKSLDK [E14W] — lower, 2.47
- QSLDQEILLKVKTYIEEELKSLDK [E14Y] — lower, 3.16
- QSLDQEILLKVKTEDEEELKSLDK [I15D] — higher, 5.89
- QSLDQEILLKVKTEVEEELKSLDK [I15V] — lower, 5.08
- QSLDQEILLKVKTECEEELKSLDK [I15C] — lower, 5.12
- QSLDQEILLKVKTEWEEELKSLDK [I15W] — lower, 4.45
- QSLDQEILLKVKTEEEEELKSLDK [I15E] — higher, 5.8
- QSLDQEILLKVKTEAEEELKSLDK [I15A] — lower, 5.33
- QSLDQEILLKVKTENEEELKSLDK [I15N] — higher, 5.58
- QSLDQEILLKVKTEMEEELKSLDK [I15M] — lower, 5.08
- QSLDQEILLKVKTESEEELKSLDK [I15S] — higher, 5.72
- QSLDQEILLKVKTEHEEELKSLDK [I15H] — lower, 5.29
- QSLDQEILLKVKTETEEELKSLDK [I15T] — higher, 5.76
- QSLDQEILLKVKTEGEEELKSLDK [I15G] — higher, 5.61
- QSLDQEILLKVKTEKEEELKSLDK [I15K] — higher, 5.41
- QSLDQEILLKVKTEQEEELKSLDK [I15Q] — higher, 5.46
- QSLDQEILLKVKTEYEEELKSLDK [I15Y] — lower, 4.88
- QSLDQEILLKVKTEPEEELKSLDK [I15P] — higher, 5.92
- QSLDQEILLKVKTELEEELKSLDK [I15L] — lower, 4.85
- QSLDQEILLKVKTEIEEILKSLDK [E18I] — lower, 2.58
- QSLDQEILLKVKTEIEEVLKSLDK [E18V] — lower, 3.69
- QSLDQEILLKVKTEIEEHLKSLDK [E18H] — lower, 4.05
- QSLDQEILLKVKTEIEEMLKSLDK [E18M] — lower, 1.98
- QSLDQEILLKVKTEIEETLKSLDK [E18T] — lower, 3.92
- QSLDQEILLKVKTEIEEDLKSLDK [E18D] — higher, 5.58
- QSLDQEILLKVKTEIEECLKSLDK [E18C] — lower, 3.41
- QSLDQEILLKVKTEIEENLKSLDK [E18N] — lower, 4.4
- QSLDQEILLKVKTEIEEGLKSLDK [E18G] — lower, 4.62
- QSLDQEILLKVKTEIEEQLKSLDK [E18Q] — lower, 3.88
- QSLDQEILLKVKTEIEELLKSLDK [E18L] — lower, 3.06
- QSLDQEILLKVKTEIEEYLKSLDK [E18Y] — lower, 2.17
- QSLDQEILLKVKTEIEESLKSLDK [E18S] — lower, 4.61
- QSLDQEILLKVKTEIEEPLKSLDK [E18P] — lower, 4.32
- QSLDQEILLKVKTEIEEFLKSLDK [E18F] — lower, 3.8
- QSLDQEILLKVKTEIEERLKSLDK [E18R] — lower, 4.16
- QSLDQEILLKVKTEIEEWLKSLDK [E18W] — lower, 2.8
- QSLDQEILLKVKTEIEEALKSLDK [E18A] — lower, 4.02
- QSLDQEILLKVKTEIEEKLKSLDK [E18K] — lower, 3.74
